Experimental data reported in the DeepSol protein solubility set.

experiment: soluble on expression in E. coli; label from the status in PepcDB or PDB records

| Sequence | soluble on expression in E. coli |
| --- | --- |
| MVMVNFTAGKWISEPKVSEVTSEFVSITTEPKTDFWQRSYYGFRNENAPALLIDSKDNFTFTAKVSFAYQQLFDQCGLIIYLDNENWFKASIEYENQSFSRLGSVVTNLGYSDWATTDIPLPKEIWYRLSRRGPDFLIESSFDGLVFNQMRIFHLHRLGETTIEMGKCNPPLPTQKVVSFGVYACSPSESSFTAKFTEMSLEPCKWLAHLEHHHHHH | soluble |
| MVNDLTPHFEDVQAHYDLSDDFFRLFLDPTQTYSCAHFEREDMTLEEAQIAKIDLALGKLGLQPGMTLLDIGCGWGATMRRAIAQYDVNVVGLTLSKNQAAHVQKSFDEMDTPRDRRVLLAGWEQFNEPVDRIVSIGAFEHFGHDRHADFFARAHKILPPDGVLLLHTITGLTRQQMVDHGLPLTLWLARFLKFIATEIFPGGQPPTIEMVEEQSAKTGFTLTRRQSLQPHYARTLDLWAEALQEHKSEAIAIQSEEVYERYMKYLTGCAKLFRVGYIDVNQFTLAK | soluble |
| MVNGSLGSRETETSAVKMGKDNKEHKESKESKTVDNYEARMPAVLPFAKPLASKKLNKKVLKTVKKASKAKNVKRGVKEVVKALRKGEKGLVVIAGDISPADVISHIPVLCEDHSVPYIFIPSKQDLGAAGATKRPTSVVFIVPGSNKKKDGKNKEEEYKESFNEVVKEVQAL | soluble |
| MVNRIQNPILPGFHPDPSIVRVGDDYYIATSTFEWFPGVRIHHSRDLKHWRFVSSPLTRTSQLDMKGNMNSGGIWAPCLSYHDGTFYLIYTDVKQWHGAFKDAHNYLVTAQNIEGPWSDPIYLNSSGFDPSLFHDDDGRKWLVNMIWDYRKGNHPFAGIILQEYSEAEQKLVGPVKNIYKGTDIQLTEGPHLYKKDGYYYLLVAEGGTEYEHAATLARSQSIDGPYETDPSYPLVTSTGQPELALQKAGHGSLVETQNGEWYLAHLCGRPLKGKYCTLGRETAIQKVNWTEDGWLRIEDGGNHPLREVTAPDLPEHPFEKEPELDDFDAPQLHHQWNTLRIPADPSWCSLEERPGHLRLRGMESLTSVHSQSLVARRQQSFHCEVETKLEYQPESFQHMAGLVIYYDTEDHVYLHVTWHEEKGKCLQIIQTKGGNYDELLASPIPLAEEKAVYLKGRIHRETMHLYFKQEGEAEWQPVGPTIDVTHMSDDSAKQVRFTGTFVGMATQDLSGTKKPADFDYFRYKELDQ | soluble |
| MVNRLINSRSPYLRKAANQPVEWFEWGEEAFAKAKKEDKPILLSIGGVWCHWCHVMAKESFENEEIAEMINRNFVAIKVDRDERPDIDKRYQEFVMATTGSGGWPLTVFLTPDGKPFFGGTYFPPEDRYHLPGFKTVLRKIAEMWRHDRERLLKSAEELTEAVRRYAE | not soluble |
| MVNTNLEELRTQVDQLNIDLLELISKRANLVQEIGKIKGTQGSLRFDPLREREMLNTILAANEGPFEDSTVQKLFKEIFKAGLELQEEDHSKALLVSRKNKKEDTIVTVKGLPIGNGEPVFVFGPCSVESYEQVAAVAESIKAKGLKLIRGGAFKPRTSPYDFQGLGLEGLKILKRVSDEYGLGVISEIVTPADIEVALDYVDVIQIGARNMQNFELLKAAGRVDKPILLKRGLSATIEEFIGAAEYIMSQGNGKIILCERGIRTYEKATRNTLDISAVPILKKETHLPVMVDVTHSTGRKDLLLPCAKAALAIEADGVMAEVHPDPAVALSDSAQQMDIPEFEEFWNAILASNLVPHKIK | not soluble |
| MVNVAVNGYGTIGKRVADAIIKQPDMKLVGVAKTSPNYEAFIAHRRGIRIYVPQQSIKKFEESGIPVAGTVEDLIKTSDIVVDTTPNGVGAQYKPIYLQLQRNAIFQGGEKAEVADISFSALCNYNEALGKKYIRVVSCNTTALLRTICTVNKVSKVEKVRATIVRRAADQKEVKKGPINSLVPDPATVPSHHAKDVNSVIRNLDIATMAVIAPTTLMHMHFINITLKDKVEKKDILSVLENTPRIVLISSKYDAEATAELVEVARDLKRDRNDIPEVMIFSDSIYVKDDEVMLMYAVHQESIVVPENIDAIRASMKLMSAEDSMRITNESLGILKGYLI | soluble |
| MVPPRGDAVRGPLGPGGESVVERYWEALKGVKDPEIPVLNIVEMGMVLGVEAEGKRVKVRFRPTFSGCPAIQLIREEIVGALKEAGAEEVEVEEARTPWSTEAMTEEAREKLLGYGVAPPLPLPMAGEDPPCPRCGSREVVLKNPFGATLCKTLYQCAACGEVFEAFKTV | soluble |
| MVSDEDELNLLVIVVDANPIWWGKQALKESQFTLSKCIDAVMVLGNSHLFMNRSNKLAVIASHIQESRFLYPGKNGRLGDFFGDPGNPPEFNPSGSKDGKYELLTSANEVIVEEIKDLMTKSDIKGQHTETLLAGSLAKALCYIHRMNKEVKDNQEMKSRILVIKAAEDSALQYMNFMNVIFAAQKQNILIDACVLDSDSGLLQQACDITGGLYLKVPQMPSLLQYLLWVFLPDQDQRSQLILPPPVHVDYRAACFCHRNLIEIGYVCSVCLSIFCNFSPICTTCETAFKISLPPVLKAKKRN | soluble |
| MVSEQHAVDICLDKLRFYEVLSAHGFPVVPTALSLAELDDGDYVVKERYGAGATNIGLRLTKEEANRHAQKLEAPVFQPFIAGAEFSIDLYMTRTGRVKGAVARTREYVVNGESQITTTIRNEKLEDMCIAVASYLRLYGHAVMQVIIDYEGQFHLIECNPRFGGASTVSLEAGLDSFYWFFLESQGGDLDDYPFSRSMKEKRQIRYPADFVIDL | not soluble |
| MVSKRTKESIRNLNIFKGLELCIHISESVSYRVSKNRTVIFIISIGYKGVTVSKGPTYQERFTFTTQKFNAKSCLNHFLYVINPTKIDDLHFSIITGTFDDPKIQMAVECLKGLRVVNLNTPILSNTKTLAELVKTFEPTEHLKIHRYPFQTLGFAQLFQLREILPGKFPILSLNINMPLNGLLLTSSSSVGVNNNRLLTSKDFNIFLKHWIAGLKPELECIRILDYRLDWNEHTVLKGIPYEVAPMETKIKFRRKEELQLGGFDFTMSSGVKATLHFHYWDRVPITEISVVLHDSEIITFL | not soluble |
| MVSLCKLFGVTKQAFYKYVDHSTDSSARERFVLEFVKRVRSKDPGIGGMKLWLMYRNEFGTSQAFVGRDCFCAILSKYKLTIRKRFRAPRTTDSSHHLPQYPDLTRTLLLEHPDQLWVSDITYITIWLPDGSYVFCYLSLVTDAYTKEIIGYCVGDTLGSCYTVEALEMAVRRIAAKEIKGLIHHSDRGVQYASADYIAILRHNGILPSMTEDGNPKDNAIAERVNGIIKNELLQGMRFSSIQEVRKAVATAVHFYNNERPHMSLDMLTPVQAGEMQGPIRKRWISYREKYLNVALA | not soluble |
| MVSQRLHHRCDLVFFVVDSKHDQLNLDRFEFWQLTSQLLVLDVCLFDAFALEHHHHHH | not soluble |
| MVSVARELTVGINGFGRIGRLVLRACMEKGVKVVAVNDPFIDPEYMVYMFKYDSTHGRYKGSVEFRNGQLVVDNHEISVYQCKEPKQIPWRAVGSPYVVESTGVYLSIQAASDHISAGAQRVVISAPSPDAPMFVMGVNENDYNPGSMNIVSNASCTTNCLAPLAKVIHERFGIVEGLMTTVHSYTATQKTVDGPSRKAWRDGRGAHQNIIPASTGAAKAVTKVIPELKGKLTGMAFRVPTPDVSVVDLTCRLAQPAPYSAIKEAVKAAAKGPMAGILAYTEDEVVSTDFLGDTHSSIFDAKAGIALNDNFVKLISWYDNEYGYSHRVVDLLRYMFSRDAENLYFQ | soluble |
| MVTDEAGLLSNAQEEVMNGRLRAIRSSHAVEFAVVTLPSIGDAPLEDFTLKLARQWGVGNEKNNNGLLLVLVLDQRRVRFETGYGLEGYLPDGLLSRIIHDRMIPHFRSGNYAEGLSEGVLAVQQVLDGSYDVKPLEHHHHHH | not soluble |
| MVTFREMDISDYNEVIALWATTENVSLRDADSRPNIEAYLKRNQGLSFVAVSDSLVIGAVLVGTDGRRGYVQHLAVSSDFRGQGIGKSLIQKATDALSRIGISKTHLFVLIENVVAQDFYTKLDWYPRDEIRMFSYNSSSNPEV | not soluble |
| MVVFVQSRKRWTYSSAHLLVEEYPSKKVDFKEFASKLTEDEINLRVMPIFWVAGHDNAVLSSTISDSTVALLSRWDVIAAMEAVSRYKVTSMYLTFDMYWQILEHPERELEIFEDLYTFKLCEKGLTVQLREKWKEVAGAILREARTS | not soluble |
| MVVKFTKSEALHKEALEHIVGGVNSPSRSFKAVGGGAPIAMERGKGAYFWDVDGNKYIDYLAAYGPIITGHAHPHITKAITTAAENGVLYGTPTALEVKFAKMLKEAMPALDKVRFVNSGTEAVMTTIRVARAYTGRTKIMKFAGCYHGHSDLVLVAAGSGPSTLGTPDSAGVPQSIAQEVITVPFNNVETLKEALDKWGHEVAAILVEPIVGNFGIVEPKPGFLEKVNELVHEAGALVIYDEVITAFRFMYGGAQDLLGVTPDLTALGKVIGGGLPIGAYGGKKEIMEQVAPLGPAYQAGTMAGNPASMASGIACLEVLQQEGLYEKLDELGAMLEKGILEQAAKHNIDITLNRLKGALTVYFTTNTIEDYDAAQDTDGEMFGKFFKLMLQEGVNLAPSKYEAWFLTTEHTKEDIEYTIEAVGRAFAALADNK | not soluble |
| MVYKPLEASDRTELRALQSDRLQRIVTHAHENVPFYREKLDAAGVSPEDIQSIDDITKLPMTTKEDFRDEYPDGLFAVDDEEVARIHASSGTTGKPKIVSYTDDDLDTWSEVVARSLAASGTEAGDTVQNAYGYGLFTGGLGIHYGTEELGASVVPIGSGQTQRQVELMTDLESDVFTCTPSYALYLAETAEEMGHDPRDLPISTIIFGAEPCTDPMREEIEERLGVDGIDIYGLSEIIGPGVSCECHEAKDGLHIWEDHFYPEVIDPHTKEPVEEGEEGELVLTTLTKEALPVFRYRTGDLTTLNYDECACGRTMVRMDNVTGRTDDLLIVRGVNLYPSEIEHAVLDIDGVAPHYRIDLYKEDNLDILELTIERTAEQGPGDKALEDEIIERLENVLAFTPDELELVAPGSIERTQVGKVKRVYDHRD | not soluble |
| MVYRCTGCGQSQPKWSGQCGGCGQWNTLVEEIEAPAVGRRRAGYAGAAEGSMPVSLAEVSREDLSRVTSGLGELDRVLGGGVVPGSAILLGGDPGIGKSTLLLQTLAYLGKSARTLYVTGEESLSQVSLRAHRLGLDGHGIQALAETSLERILDTAERHKPEVLVVDSIQTVYSEALQSAPGSVGQVRECSAQLVRYAKQSSTTVFLVGHVTKEGALAGPRVLEHMVDTVLYFEGDASSRYRVVRSFKNRFGAVNELGVFAMTETGLKEVRNPSAIFLSRGDEDMPGSIVTVTREGSRPLLVEVQALVDESHLQSPRRLVVGMEMNRLAMLLAVLHRHGGVPVAAQDVFVNLVGGVRLTETAGDLAIACAVVSSFRDRPVPGEWVIFGELGLNGEIRPVPNGEERLREAAKHGFKYALVPAKNAPKQGVPGVSIIAARNLREAINALLEHHHHHH | soluble |
| MWFKNLTLYRFNKPFSIETEALETALADFTFSPCGSQDVSKFGFSNALGKKGSTLVHSANNRHLICVTKEEKILPAQVIKESLEEKVAQIEDEENRKLAKKEKDALKDEIITSLLPRAFSRRSQTRALILPELEMILVDSSSATKAEELLALLRKALGSLPVIPLSFKAPIESQLTEWLKNGSAPLPFEMQDEAELKSAADEGGIVRFKQQDLKEDEVLAHLETGKEVHKLALHFGQSIALLLQSDASVKRLKFSEEFRAGNDELGNEDPMARLDADFALMGSELVALMHALVSALGGIEETQA | soluble |
| MWKWETENDAKGVVVIAHNILEHTGRYAYVITMLRRNGYHVIMGDLPGQGQTSRAQKGQIDDFNTYHENILEWIKIANEYKIPTFVLGVGLGGLIILNLLEKTELPIEGILLFSPMLELKRDYKGRKNKLISNVGKISKDTRFKVGITPQDLTRNDEIIEETANDGLMLKKVTYSWYNLINEKMKETMDHIRDIKPISALIMYGTNDKILETQSINEMKDKLKSKEMYFKVWDGLYHEIHNEPERDLVMRYVLSFLNNSVNTMGFIVNEEEIEDI | not soluble |
